CN111875700A (CUSABIO BIOTECH CO LTD, dated 2020)

Target: T1, SARS-COV-2病毒N蛋白 (nucleocapsid protein) (SARS-COV-2, UniProt P0DTC9 1-419)
T1 construct: Recombinant N protein; also called 核衣壳蛋白
Experiment: ELISA of scFv supernatants on coated N protein, detected with anti-E/HRP

B1: 1A6单链抗体 (1A6 scFv) (scFv)
scFv: EVKLKESGAELVKPGASVKLSCTASGFNIKDTYMHWVKQRPGQGLEWIGYINPSTGYTEYNQKFKDKATLTADKSSSTAYMQLSSLTSEDSAVYYCARDALGWYFDVWGAGTLVTVSTGGGGSGGGGSGGGGSDVVMTQSHKFMSTSVGDRVSVTCKASQNVGTNVAWYQQKPGQFPKALIYSASYRYSGVPDRFTGSGSGTDFTLTISNVQSEDLAEYFCQQYNSYPLTFGAGTKLEIK
notes: also called 1A6 single-chain antibody; not shown: E-tag from vector pCANTAB5E (detected with anti-E/HRP)
Q: Does B1 bind?
A: binds
